From patent publication US20050095231A1

Target: artificial receptor (AR) on 293/6H cells: anti-5His single chain antibody fused with the transmembrane domain of the PDGF receptor
Assay: cell-based or functional assay

Substance: fiber-fibritin-6His chimera (FF/6H), as carried by Ad5LucFF/6H virions
- Ad5LucFF/6H-expressed luciferase activities in 293/6H cells expressing AR compared to parental 293 cells (orders of magnitude): 2
